Paper PMC7894885, “Cyp33 binds AU-rich RNA motifs via an extended interface that competitively disrupts the gene repressive Cyp33-MLL1 interaction in vitro”

B1: SO-8 (structured_RNA)
RNA: AGAACAAUAAUUACAAAGACUGAGCGUUUUAAAGUCUCCUCAUGUGCCCCC

Columns and labels:
MLL1 PHD3 (Homo sapiens) = MLL1 PHD3 (Homo sapiens) (UniProt Q03164); conditions: cited from earlier work
Cyp33-Cyp = Cyp33-Cyp (human, UniProt Q9UNP9 131-301); assay: NMR 1H-15N HSQC; no significant perturbation; EMSA: SELEX buffer (composition in S2 Table, not in material; physiological salt is 135 mM KCl, 15 mM NaCl) + 10% glycerol, 5 nM RNA, 0.5X TBE 8% PAGE at room temperature; NMR: SELEX buffer + 10% D2O, 25 C; pH not given; conditions: protein: recombinant; tags: C-terminal 6xHis, pET15b; label: 5'-32P (EMSA); hairpin (predicted)
Chain of Cyp33-Cyp (Q9UNP9 131-301): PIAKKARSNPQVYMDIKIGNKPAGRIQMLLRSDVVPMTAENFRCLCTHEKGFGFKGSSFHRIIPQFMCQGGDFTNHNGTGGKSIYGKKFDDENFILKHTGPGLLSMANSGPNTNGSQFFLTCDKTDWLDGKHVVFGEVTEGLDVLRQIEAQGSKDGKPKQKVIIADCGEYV

FL-Cyp33 [1] = target: T1, FL-Cyp33 (human, UniProt Q9UNP9 1-301); assay: EMSA; EMSA: SELEX buffer (composition in S2 Table, not in material; physiological salt is 135 mM KCl, 15 mM NaCl) + 10% glycerol, 5 nM RNA, 0.5X TBE 8% PAGE at room temperature; NMR: SELEX buffer + 10% D2O, 25 C; pH not given; conditions: protein: recombinant, 6xHis-thrombin construct for NMR, hairpin (predicted)
T1 sequence (Q9UNP9 whole entry): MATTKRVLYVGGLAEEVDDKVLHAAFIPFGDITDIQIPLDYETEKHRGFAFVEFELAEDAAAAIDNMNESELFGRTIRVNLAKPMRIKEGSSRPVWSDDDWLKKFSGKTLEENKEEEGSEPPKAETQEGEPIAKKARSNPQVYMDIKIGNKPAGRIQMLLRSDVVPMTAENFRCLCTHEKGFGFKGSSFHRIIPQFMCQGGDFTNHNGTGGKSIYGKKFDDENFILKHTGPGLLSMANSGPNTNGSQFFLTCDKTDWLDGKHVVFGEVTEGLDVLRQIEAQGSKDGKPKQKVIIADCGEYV

FL-Cyp33 [2] = target: T1, FL-Cyp33; assay: EMSA; no quantifiable binding by gel shift; EMSA: SELEX buffer (composition in S2 Table, not in material; physiological salt is 135 mM KCl, 15 mM NaCl) + 10% glycerol, 5 nM RNA, 0.5X TBE 8% PAGE at room temperature; NMR: SELEX buffer + 10% D2O, 25 C; pH not given; conditions: protein: recombinant; 6xHis-thrombin construct for NMR; single strand

Chain of MLL1 PHD3 (Homo sapiens) (Q03164 1566-1627): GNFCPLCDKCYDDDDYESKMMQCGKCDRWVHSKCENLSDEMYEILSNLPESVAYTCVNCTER

| Molecule | Kd (FL-Cyp33 [1]; label: 5'-32P) | also measured |
| --- | --- | --- |
| Cyp33 RRM (from UniProt Q9UNP9) | – | Kd (MLL1 PHD3 (Homo sapiens)): 1900 nM |
| UGGUAGACCAGUGAUAAUUAACCUGAUGCGUGGAGGAUAUCGAGUUGUCC (structured_RNA) [SO-1] | – | binding result (Cyp33-Cyp): no binding; Kd (FL-Cyp33 [1]; label: 5'-32P (EMSA)): 6.6 ± 0.6 µM |
| UGGUAGACCAGUGAUAAUUAACCUGAUG (structured_RNA) [SO-3] | 32 ± 2.5 µM | – |
| CAGGUGUGUGACUACGAAAGAACAAUAAUAACACAAAAGAGUCCCGUGCC (structured_RNA) [SO-2] | 21 ± 3.1 µM | – |
| UGGCCGGCCCAUCCCGACUGCCGGGUGAUAGACUCUUUAGCGAUUUAUGG (structured_RNA) [SO-4] | 55 ± 10 µM | – |
| AGGUGCCUCAAAUCCGCAUAAGAAUAACAACAUGGAGUGAAGCGCUCCCC (structured_RNA) [SO-6] | 36 ± 10 µM | – |
| B1 | 24 ± 13 µM | – |
| AAAGUGAGAUAAGGUAACAACAAGAAUAAUAAUAUACCUAUCAUCUUGCC (structured_RNA) [SO-9] | ~90 µM | – |
| AGUGAUAAUUAA (ssRNA) [SO-1 single-stranded region 12-mer] | – | binding result (FL-Cyp33 [2]): no binding |
| AAUAAUAA (ssRNA) [AAUAAUAA k-mer] | – | binding result (FL-Cyp33 [2]): no binding |
